Laboratory results reported in publication PMC4030845, “DeSUMOylation Controls Insulin Exocytosis in Response to Metabolic Signals” (Biomolecules, 2012).

Biological target: the molecule itself
Test: immunoblot of cell lysates after SDS-PAGE (dimer band); INS-1 832/13 cells infected with Ad-SENP1, incubated in KRBH buffer with or without H2O2 (legend: 200 µM; methods: 1 mM) for 30 min at 37 °C; lysed in Cell-Lytic-M with DTT; 8% SDS-PAGE; blot with anti-SENP1 (C12)

B1: SENP1 (sentrin-specific SUMO protease 1) (enzyme, UniProt Q9P0U3 1-644, looked up)
chain: MDDIADRMRMDAGEVTLVNHNSVFKTHLLPQTGFPEDQLSLSDQQILSSRQGHLDRSFTCSTRSAAYNPSYYSDNPSSDSFLGSGDLRTFGQSANGQWRNSTPSSSSSLQKSRNSRSLYLETRKTSSGLSNSFAGKSNHHCHVSAYEKSFPIKPVPSPSWSGSCRRSLLSPKKTQRRHVSTAEETVQEEEREIYRQLLQMVTGKQFTIAKPTTHFPLHLSRCLSSSKNTLKDSLFKNGNSCASQIIGSDTSSSGSASILTNQEQLSHSVYSLSSYTPDVAFGSKDSGTLHHPHHHHSVPHQPDNLAASNTQSEGSDSVILLKVKDSQTPTPSSTFFQAELWIKELTSVYDSRARERLRQIEEQKALALQLQNQRLQEREHSVHDSVELHLRVPLEKEIPVTVVQETQKKGHKLTDSEDEFPEITEEMEKEIKNVFRNGNQDEVLSEAFRLTITRKDIQTLNHLNWLNDEIINFYMNMLMERSKEKGLPSVHAFNTFFFTKLKTAGYQAVKRWTKKVDVFSVDILLVPIHLGVHWCLAVVDFRKKNITYYDSMGGINNEACRILLQYLKQESIDKKRKEFDTNGWQLFSKKSQEIPQQMNGSDCGMFACKYADCITKDRPINFTQQHMPYFRKRMVWEILHRKLL
notes: The adenovirus co-expresses GFP to identify infected cells; also called Ad-SENP1
stoichiometry N: 2
